Test: soluble on expression in E. coli; label from the status in PepcDB or PDB records

Row | Sequence | soluble on expression in E. coli
1 | MCGIVGANSTRNVTNILIEGLKKLEYRGYDSAGLAIIDDKNNIDICKEVGKVIELEKSVHNLANFKGDIGIAHTRWATHGKPSKNNSHPHASESFCIVHNGVIENFAELKKVLINDGYKFKSDTDTEVIAHLLQKEWRDNFSIVDNIKYIMAMLKGAYAVAIISQKFSDKIVAVRSGSPLVIGVGIDENFISSDALSLLPVTNKFSYLDEGDIAIISKDNVEVFDNNGAAKNLEVEEYNYSSSSASKDGYKHYMLKEIYEQPEAVSNTILASLADGEISLDSFDKRAKELFEKTKHICIVACGTSYNAGMTAKYWIEKYAKVPCSVEIASEIRYRDNVVVDGSLFVSISQSGETADTLESLRKSKKQNYVGSMCICNVPNSSLVRESDIAFMTKAGVEIGVASTKAFTTQLVALAIFTLVIAKLKNSLTDQQIAKYTEELKNIRALVMGALKLDTEIDQISEYFSDKEHTIFLGRGLYYPIAIEGALKLKEISYIHAEAYPSGELKHGPLALVDKNMPIVAVVPNDELLDKTLSNLQEVHARGGKLILFVDKAVKERVNFDNSIVLELDAGHDFSAPVVFTIPLQLLSYHVAIIKGTDVDQPRNLAKSVTVE | not soluble
2 | MAHHHHHHMQDHMFAKSGVPANGAGLGQNYYTRDLITEVPTIIQIVPVSSEALATQRSPPKGTSDTFKISLDDVEPTAGWLSDRNNASLDICFMHSFGKCYGKIREKDPRTCHQIHVKRNVLDNLRKYYTNPQRNYFCRTMKANVTEKFAQVLSLLARRRIGLRYLEFRTEDIEVTAGSTEYEVQYRLWLVSDVEPQSRSRAQAANILTDNFISSSNLCWDFALTGRCCKGASCPDLHGHVAKALTKDRYVKAALAEMGKKDSLVPPTETTQPGKTPRVCQPSTSAPQQFPPPPPMPQQCASFIVSSPISPPYCFSSLPAASGMSAPSPNPTLAAFPLDMSSLQGTPCFLVDKGSDNVFRLITQSQFASFGNDAS | not soluble
3 | MRTLYPEITPYQQGSLKVDDRHTLYFEQCGNPHGKPVVMLHGGPGGGCNDKMRRFHDPAKYRIVLFDQRGSGRSTPHADLVDNTTWDLVADIERLRTHLGVDRWQVFGGSWGSTLALAYAQTHPQQVTELVLRGIFLLRRFELEWFYQEGASRLFPDAWEHYLNAIPPVERADLMSAFHRRLTSDDEATRLAAAKAWSVWEGATSFLHVDEDFVTGHEDAHFALAFARIENHYFVNGGFFEVEDQLLRDAHRIADIPGVIVHGRYDVVCPLQSAWDLHKAWPKAQLQISPASGHSAFEPENVDALVRATDGFA | soluble
4 | MSLKIRLPEMIDYFRKENGWTMKEFGEKLGKSESAISKWIKGVRSPMVEDFDKMVNLFNTDPDTLMYGASDLSTTLSEINKISSQLEEPRQKVVLNTATNQLDEQNQEKKKESKVIPINKIPDDLPPYISRKILENFVMPTNTMEYEPDEDMVDVPILGRIAAGLPLDAVENFDGTRPVPAHFLSSARDYYWLMVDGHSMEPKIPFGSYVLIEAVPDVTDGTIGAVLFQDDCQATLKKVYHEIDCLRLVSINKEFKDQFATQDNPAAVIGQAVKVEIDLEGHHHHHH | soluble
5 | MIRYMIKESRMELIEENMKHLQDRLKTAKENEMSAKTVRHDFRHHNQNIATMIQKGETNEALHYIEQYNESLDAARTKEFCSHVTVNAILSSFYIKAQNDGICISIEADTQEGTNISDMDFVAILSNILENAVNGCKECGAHGKINVNIRTVSDKTVIVCSNSCKPGLVIENNMIKHRGIGIESMLTAARKYDGDISYRLENDVLTLCVILKK | not soluble
6 | MGSDKIHHHHHHMEHIQSSIEKILNRPDVAESVRAIHQRVLSHPGVIMFLRTHPEIDQRMIERGMLKLNEYAEQMNGNQIIEKKAVIEGYQPVLHLEKGQIMVAYEKTQALRDRENERALEKKFKSLFLPDEVRDANFSDFDLTTTDRKLALRAASQFLNTVRSKQQVKGLYLHGSFGVGKTYLLAAIGNALKKERVATILVHAPGFVSEAKRRIRSDSFDTFLESFQTVPVLLIDDIGAESISPWVRDELFGIILQYRMMHRLPTLFSSNLSYDELELHFGITNDQGDKLKAMRLMERIRTTTNPVEFLGENRRRY | not soluble
7 | MPKNRGVLDAITRSVIDGSDQESSSSFNSDKEYAAVTKGLSSSRVQKKSSLRQMKSKVKELQSLVNHYRENEAALVSSAKLLSGEIIGYEIKMASLHGKMKSILDENNALKETHKSSAEKRIELVRLPSSKEERNYDEYTLLVNLKKEICAKLQDYKNVQNTVNTKLDEIHTFHEKYYEGLELSLDSKVFDAESSKELAKVRRELNNVRKNSEIKVNNLKMQLLQATKSLEHLKKQAKAKDDYLKCIPELVDKANLTMLSYKKSIANQRETIEALQAELSQQSETKGQIETETQNQVQIPTNVTLVDPFEENNPEDLFAIQEQELQDLRLHKKMADERSRTTHLHLERKNNTIKLLQSYVQSLIQRLPPAQRKHHLGIFQKLGSEKSCPLAPAVASTYAPLLLLSQHSNHQEIDNTPQRLLLAAPDGQSYSEKSTTLNLDYSSRKSYLSRLQPPHIANLKSLTLKTLPRVPTDSPQLPSKDKSQETAKKDDRPKLVANEPVTLDTSTPPVAQSLADSKHCSGLHK | not soluble
8 | GPGSMACLSRIDANLLQYYEKPEPNNTVDLYVSNNSNNNGLKEGDKSISTPVPQPYGSEYSNCLLLSNSEYICYHFSSRSTLLTFYPLSDAYHGKTINIHLPNASMNQRYTLTIQEVEQQLLVNVILKDGSFLTLQLPLSFLFSSANTLNGEWFHLQNPYDFTVRVPHFLFYVSPQFSVVFLEDGGLLGLKKVDGVHYEPLLFNDNSYLKSLTRFFSRSSKSDYDSVISCKLFHERYLIVLTQNCHLKIWDLTSFTLIQDYDMVSQSDSDPSHFRKVEAVGEYLSLYNNTLVTLLPLENGLFQMGTLLVDSSGILTYTFQNNIPTNLSASAIWSIVDLVLTRPLELNVEASYLNLIVLWKSGTASKLQILNVNDESFKNYEWIESVNKSLVDLQSEHDLDIVTKTGDVERGFCNLKSRYGTQIFERAQQILSENKIIMAHNEDEEYLANLETILRDVKTAFNEASSITLYGDEIILVNCFQPYNHSLYKLNTTVENWFYNMHSETDGSELFKYLRTLNGFASTLSNDVLRSISKKFLDIITGELPDSMTTVEKFTDIFKNCLENQFEITNLKILFDELNSFDIPVVLNDLINNQMKPGIFWKKDFISAIKFDGFTSIISLESLHQLLSIHYRITLQVLLTFVLFDLDTEIFGQHISTLLDLHYKQFLLLNLYRQDKCLLAEVLLKDSSEFSFGVKFFNYGQLIAYIDSLNSNVYNASITENSFFMTFFRSYIIENTSHKNIRFFLENVECPFYLRHNEVQE | soluble
9 | MRLRLALFSSLLAATFAITGCDQSSETPDNAATISIEHAQGTTLVPLNPQKVVILNPSVLDNADALHIKVAGVPQTSTHLPAFLSKYSGPEYMNTGTLFEPDYEALSQAKPDLIIAGGRAQDAYNKLSAIAPTIALDVDTQHFTQSLTQRTEQLASIFGKEEEAKTLLGNFSSQVNAIKQKSANAGSAMVLMISGGKMSAYTPGSRFGFIFDELGFTPAATFAESGRHGNVVTSEFILNANPDWLFVLDRDNAIGRTEGQSAQQVLDNPLIHKTKAWQNDRIVYLDSASLYIAGGVQSYTQLMNKVSAILDKPVSEQ | not soluble
10 | MHTIELRNISKVIKNNIVLSNINYKFESGKVYGLKGRNGSGKSMLLRTISGLIRPTSGSVIIDGKELHKEIESPGNIGIVVENAGLYPDFTGFYNLKYLAGIMGQISDDEIINAIKRVGLDLYDKKIVKKYSLGMKQKIVIAQAIMEKPDFLLLDEPTNALDESGVKLLREIVQEEATRGALVIIASHNQEDIELLCDKVIIMADGKISDEYVNSREMNLCSEETQ | not soluble
11 | MSLSTADALDDENTFKILVATDIHLGFMEKDAVRGNDTFVTLDEILRLAQENEVDFILLGGDLFHENKPSRKTLHTCLELLRKYCMGDRPVQFEILSDQSVNFGFSKFPWVNYQDGNLNISIPVFSIHGNHDDPTGADALCALDILSCAGFVNHFGRSMSVEKIDISPVLLQKGSTKIALYGLGSIPDERLYRMFVNKKVTMLRPKEDENSWFNLFVIHQNRSKHGSTNFIPEQFLDDFIDLVIWGHEHECKIAPTKNEQQLFYISQPGSSVVTSLSPGEAVKKHVGLLRIKGRKMNMHKIPLHTVRQFFMEDIVLANHPDIFNPDNPKVTQAIQSFCLEKIEEMLENAERERLGNSHQPEKPLVRLRVDYSGGFEPFSVLRFSQKFVDRVANPKDIIHFFRHREQKEKTGEEINFGKLITKPSEGTTLRVEDLVKQYFQTAEKNVQLSLLTERGMGEAVQEFVDKEEKDAIEELVKYQLEKTQRFLKERHIDALEDKIDEEVRRFRETRQKNTNEEDDEVREAMTRARALREGHHHHHH | not soluble
12 | METTKTNVLEAGAKVLQSNGPVGKLDIYLVGFHPMKDAPEQQMEAHHYCQQVNQDLAQCALYDGNTAEANLTGIEYIISESLFAQLPAQERAFWHPHNGEILSGQLSAPNLPLVAEKELMRSKMNSYGKTWHTWHSRKGTAPGDTLPLGEPMLAWSFSRDGEIQQPLIEQRDKAVTISTAERRADRKDLTELAKPQHGVDALHRHFPEATPIPGVVDAEATAQLEHHHHHH | soluble
13 | MKTASYAQSFSRAAKEYDAYAYLQQTVARELASWIEGMECESILDLGCGTGALWRALRFKPRFFTGVDLSMEMLDLHPQDPAIRLIQSDFNHPSLYEHSYDLIAASSSLQWSRDLAQSFDLIAKSAQNVAFAIFTSESLWEIHDYVDSHSPIPSKERIESLLKERFAGEFELKRYPLSFPSRVAMLSYLKGSGISGGRRLGFAQSKKLIQSAPFERLTFEVLFFVGKPLKADQK | not soluble
14 | MLTSAQTRSLFRNNIFYKYRTAISVCQSIGRSIRSEEDWAYTFTLDSRFPKYISDHRNLINESVSFYEKRIPDFPSEKSIQKLKNEIFRNLPFLEHHHHHH | not soluble
15 | SHMAGLEVLFASAAPAITCRQDALVCFLHWEVVTHGYCGLGVGDQPGPNDKKSELLPAGWNNNKDLYVLRYEYKDGSRKLLVKAITVESSMILNVLEYGSQQVADLTLNLDDYIDAEHLGDFHRTYKNSEELRSRIVSGIITPIHEQWEKANV | soluble
16 | MSLTRQSLQQAAESRRSIYSLNKNLPVGKDEVVQIVEHAVLHTPSSFNSQSARVVVLFGEEHDKVWQFVEDALRAVVPADSFEPTAQKLNLFKAGAATILFYEDQNVVKGLQEQFPAYAANFPVWADQANAMVQYAVWTTLAAVGVGANLQHYNPLPDAAIAKAWNIPENWLLRAQMVIGGIEGAAGEKTFEPVAERLKVFGAEGGSHHHHHH | soluble
17 | MPQSLISELHTQYAQFVRKHPHAERDFSDALEDVLTDAGLTYDRVSARIKDWHSLKTKARKKNAQGAFIYPHPWDDVHDIIGVRITTLHSTEIPQIIEALADVFTVERSVDKTALTRISGSFGYGSHHLILKIDDRVKDLNNYVGMVFEVQIRTVLQHAWAEFEHDIRYKRSGDLDPQIDRAFTLAAGLIELADQQFDLIAAIQEPQKHSPNLEVDITAETLPGVIAMLVGSRFPQSRSEHYRWLEELLFAHSITTAAQLKELLNDRDIEAVRKALNYKFKPGQVRIIDDLLLYRYGTKHIEATGETGKNPRLRLPRLNERLRILNKHAPRNRSDLQQS | not soluble
18 | KLRQWLIDQIDSGKYPGLVWENEEKSIFRIPWKHAGKQDYNREEDAALFKAWALFKGKFREGIDKPDPPTWKTRLRCALNKSNDFEELVERSQLDISDPYKVYRIVPE | soluble
19 | MSSSHKSWNSIYEFTVKDINGVDVSLEKYRGHVCLIVNVACKCGATDKNYRQLQEMHTRLVGKGLRILAFPCNQFGGQEPWAEAEIKKFVTEKYGVQFDMFSKIKVNGSDADDLYKFLKSRQHGTLTNNIKWNFSKFLVDRQGQPVKRYSPTTAPYDIEGDIMELLEKK | soluble
20 | MSKEPGEDVDLFDMEQFQSSFKRILQRALKNVTVSFRVYEKDSVWIRVAWGTQYSQPNQYKPTFVVYYPQTPYAFISSCHLKNTVPLLHQALKVASKHHQIVHLDLRSRHLDSLKAIVFREYNQTCENYSSTTSLQEASLSMCLDSKITHENTEEKVRVHRVTQETFGTYPQPQLEFAQYKLETKFKSNIGGGLLADRKEPFRCLVKFSSPHLLEALKSLAPAGIADAPLSPLLTCIPSKKMNYFKIRDK | not soluble

Reference: the DeepSol protein solubility set
